Molecular target: recombinant full-length human BLM with a C-terminal His6-tag (human, UniProt P54132 1-1417)
Assay: co-IP

recombinant full-length human BLM with a C-terminal His6-tag, sequence (P54132 whole entry): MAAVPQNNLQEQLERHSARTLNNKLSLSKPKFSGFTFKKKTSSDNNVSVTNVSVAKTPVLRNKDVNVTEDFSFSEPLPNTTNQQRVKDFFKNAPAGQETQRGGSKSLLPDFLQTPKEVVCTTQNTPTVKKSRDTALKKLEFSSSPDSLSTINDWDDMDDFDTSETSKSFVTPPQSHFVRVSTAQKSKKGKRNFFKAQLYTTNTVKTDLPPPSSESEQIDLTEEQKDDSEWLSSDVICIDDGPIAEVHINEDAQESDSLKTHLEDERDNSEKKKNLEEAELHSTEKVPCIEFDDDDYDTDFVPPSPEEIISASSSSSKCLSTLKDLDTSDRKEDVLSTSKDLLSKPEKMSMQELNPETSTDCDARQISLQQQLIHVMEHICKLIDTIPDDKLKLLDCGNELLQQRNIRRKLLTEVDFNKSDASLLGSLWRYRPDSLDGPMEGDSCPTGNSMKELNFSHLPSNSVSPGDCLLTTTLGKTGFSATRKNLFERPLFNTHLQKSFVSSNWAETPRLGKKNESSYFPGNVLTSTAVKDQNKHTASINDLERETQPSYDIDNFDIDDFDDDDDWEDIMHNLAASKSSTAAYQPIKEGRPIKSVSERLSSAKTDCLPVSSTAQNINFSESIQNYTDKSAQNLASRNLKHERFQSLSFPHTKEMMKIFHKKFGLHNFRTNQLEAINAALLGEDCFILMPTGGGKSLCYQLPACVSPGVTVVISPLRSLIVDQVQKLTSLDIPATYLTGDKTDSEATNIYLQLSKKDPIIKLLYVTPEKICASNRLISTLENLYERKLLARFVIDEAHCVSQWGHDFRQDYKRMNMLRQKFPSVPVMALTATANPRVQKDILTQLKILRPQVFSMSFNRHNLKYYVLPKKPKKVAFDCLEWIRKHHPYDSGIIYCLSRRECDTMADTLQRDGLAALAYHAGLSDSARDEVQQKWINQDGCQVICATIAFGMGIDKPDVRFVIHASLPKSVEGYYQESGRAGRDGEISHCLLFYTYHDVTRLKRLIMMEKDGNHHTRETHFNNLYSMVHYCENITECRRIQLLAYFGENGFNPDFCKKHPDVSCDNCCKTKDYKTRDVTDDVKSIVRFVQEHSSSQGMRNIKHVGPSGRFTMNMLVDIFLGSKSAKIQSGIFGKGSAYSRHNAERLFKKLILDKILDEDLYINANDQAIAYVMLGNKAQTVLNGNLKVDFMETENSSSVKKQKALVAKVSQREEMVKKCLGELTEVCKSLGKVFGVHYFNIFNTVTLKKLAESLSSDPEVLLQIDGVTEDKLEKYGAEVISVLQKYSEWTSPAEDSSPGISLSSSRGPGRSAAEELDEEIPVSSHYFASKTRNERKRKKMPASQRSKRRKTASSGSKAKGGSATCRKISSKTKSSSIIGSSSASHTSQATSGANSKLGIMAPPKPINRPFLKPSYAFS

- binding result: binds
B1: recombinant full length human Mcm6 from wheat germ (natural protein)
chain: MDLAAAAEPGAGSQHLEVRDEVAEKCQKLFLDFLEEFQSSDGEIKYLQLAEELIRPERNTLVVSFVDLEQFNQQLSTTIQEEFYRVYPYLCRALKTFVKDRKEIPLAKDFYVAFQDLPTRHKIRELTSSRIGLLTRISGQVVRTHPVHPELVSGTFLCLDCQTVIRDVEQQFKYTQPNICRNPVCANRRRFLLDTNKSRFVDFQKVRIQETQAELPRGSIPRSLEVILRAEAVESAQAGDKCDFTGTLIVVPDVSKLSTPGARAETNSRVSGVDGYETEGIRGLRALGVRDLSYRLVFLACCVAPTNPRFGGKELRDEEQTAESIKNQMTVKEWEKVFEMSQDKNLYHNLCTSLFPTIHGNDEVKRGVLLMLFGGVPKTTGEGTSLRGDINVCIVGDPSTAKSQFLKHVEEFSPRAVYTSGKASSAAGLTAAVVRDEESHEFVIEAGALMLADNGVCCIDEFDKMDVRDQVAIHEAMEQQTISITKAGVKATLNARTSILAAANPISGHYDRSKSLKQNINLSAPIMSRFDLFFILVDECNEVTDYAIARRIVDLHSRIEESIDRVYSLDDIRRYLLFARQFKPKISKESEDFIVEQYKHLRQRDGSGVTKSSWRITVRQLESMIRLSEAMARMHCCDEVQPKHVKEAFRLLNKSIIRVETPDVNLDQEEEIQMEVDEGAGGINGHADSPAPVNGINGYNEDINQESAPKASLRLGFSEYCRISNLIVLHLRKVEEEEDESALKRSELVNWYLKEIESEIDSEEELINKKRIIEKVIHRLTHYDHVLIELTQAGLKGSTEGSESYEEDPYLVVNPNYLLED

Reference: publication PMC8421143 (Nucleic Acids Research, 2021)
